US20220213176A1 (SHANGHAITECH UNIVERSITY, published 2022)

T1: HCoV-229E spike (HCoV-229E, UniProt P15423 16-1173)
T1 construct: whole, on cells
T1 sequence: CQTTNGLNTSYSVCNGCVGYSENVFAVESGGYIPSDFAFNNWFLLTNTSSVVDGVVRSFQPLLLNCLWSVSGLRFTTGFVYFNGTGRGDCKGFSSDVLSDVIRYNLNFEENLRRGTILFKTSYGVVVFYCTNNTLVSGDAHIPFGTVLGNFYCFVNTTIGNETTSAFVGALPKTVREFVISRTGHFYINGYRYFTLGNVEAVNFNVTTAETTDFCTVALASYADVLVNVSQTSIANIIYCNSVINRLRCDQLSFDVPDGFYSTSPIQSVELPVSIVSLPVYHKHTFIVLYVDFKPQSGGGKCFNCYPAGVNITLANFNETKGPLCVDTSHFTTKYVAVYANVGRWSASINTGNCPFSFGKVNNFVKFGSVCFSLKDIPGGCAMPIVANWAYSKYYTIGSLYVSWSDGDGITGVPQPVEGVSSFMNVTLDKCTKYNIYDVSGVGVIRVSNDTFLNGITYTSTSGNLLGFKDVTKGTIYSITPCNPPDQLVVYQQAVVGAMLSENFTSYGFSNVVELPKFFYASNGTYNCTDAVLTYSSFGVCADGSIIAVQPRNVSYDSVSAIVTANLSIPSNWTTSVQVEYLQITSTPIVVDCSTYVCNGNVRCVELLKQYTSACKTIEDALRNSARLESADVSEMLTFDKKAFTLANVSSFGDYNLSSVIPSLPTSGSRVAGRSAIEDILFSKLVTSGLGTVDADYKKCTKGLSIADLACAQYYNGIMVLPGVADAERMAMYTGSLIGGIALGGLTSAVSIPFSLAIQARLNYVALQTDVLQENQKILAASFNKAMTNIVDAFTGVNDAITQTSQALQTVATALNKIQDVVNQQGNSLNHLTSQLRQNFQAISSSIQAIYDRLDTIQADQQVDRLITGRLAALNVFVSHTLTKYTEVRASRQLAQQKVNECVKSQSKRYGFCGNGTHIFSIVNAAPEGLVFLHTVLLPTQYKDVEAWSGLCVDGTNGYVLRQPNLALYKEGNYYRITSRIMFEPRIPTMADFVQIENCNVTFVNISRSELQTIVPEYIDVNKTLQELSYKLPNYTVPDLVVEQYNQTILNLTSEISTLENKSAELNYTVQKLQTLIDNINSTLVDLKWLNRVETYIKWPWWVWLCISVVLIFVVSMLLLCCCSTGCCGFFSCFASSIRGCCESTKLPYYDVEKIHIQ

T2: HCoV-OC43 spike (HCoV-OC43, UniProt P36334 14-1353)
T2 construct: whole, on cells; also called HCoV-0C43 spike
T2 sequence: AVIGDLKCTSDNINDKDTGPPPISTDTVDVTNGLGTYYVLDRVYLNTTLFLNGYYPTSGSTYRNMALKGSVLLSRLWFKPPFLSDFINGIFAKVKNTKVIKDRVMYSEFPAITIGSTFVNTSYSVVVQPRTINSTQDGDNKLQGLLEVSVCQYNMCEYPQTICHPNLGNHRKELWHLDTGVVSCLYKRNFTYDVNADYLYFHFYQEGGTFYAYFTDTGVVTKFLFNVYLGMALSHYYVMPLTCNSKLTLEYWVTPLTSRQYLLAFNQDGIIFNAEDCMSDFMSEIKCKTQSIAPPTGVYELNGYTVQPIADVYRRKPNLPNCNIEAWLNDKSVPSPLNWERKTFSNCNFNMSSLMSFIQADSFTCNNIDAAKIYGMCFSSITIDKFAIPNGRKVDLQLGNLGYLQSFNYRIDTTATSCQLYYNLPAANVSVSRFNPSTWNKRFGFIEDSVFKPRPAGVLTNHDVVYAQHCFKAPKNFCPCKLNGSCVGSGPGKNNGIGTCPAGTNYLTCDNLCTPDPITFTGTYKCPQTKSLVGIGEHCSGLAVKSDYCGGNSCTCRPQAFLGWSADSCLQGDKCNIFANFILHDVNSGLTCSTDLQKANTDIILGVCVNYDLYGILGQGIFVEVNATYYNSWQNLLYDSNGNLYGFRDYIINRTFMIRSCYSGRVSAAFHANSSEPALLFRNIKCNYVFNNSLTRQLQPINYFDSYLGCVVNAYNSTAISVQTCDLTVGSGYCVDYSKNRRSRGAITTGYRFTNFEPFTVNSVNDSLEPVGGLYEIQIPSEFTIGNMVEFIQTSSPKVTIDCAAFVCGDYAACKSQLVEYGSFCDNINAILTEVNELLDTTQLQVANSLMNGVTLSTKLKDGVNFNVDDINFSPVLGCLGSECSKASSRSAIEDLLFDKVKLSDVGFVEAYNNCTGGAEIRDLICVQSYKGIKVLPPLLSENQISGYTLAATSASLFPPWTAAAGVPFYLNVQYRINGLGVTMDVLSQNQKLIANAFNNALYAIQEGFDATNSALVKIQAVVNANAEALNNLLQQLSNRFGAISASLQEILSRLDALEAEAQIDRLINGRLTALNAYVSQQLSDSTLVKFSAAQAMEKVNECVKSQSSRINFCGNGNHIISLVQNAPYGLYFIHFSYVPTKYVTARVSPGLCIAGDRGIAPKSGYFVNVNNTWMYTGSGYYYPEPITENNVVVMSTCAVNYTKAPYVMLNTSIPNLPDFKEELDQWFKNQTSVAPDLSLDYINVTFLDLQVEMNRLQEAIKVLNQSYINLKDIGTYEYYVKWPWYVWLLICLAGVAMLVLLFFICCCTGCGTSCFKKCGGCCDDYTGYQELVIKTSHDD

B1: S-B8 (antibody, V domains shown)
VH: QVQLVQSGGGLIQPGGSLRLSCAASGFTVSLSHMNWVRQAPGKGLEWVSITYGDGNSDYADSVKGRFTISRDNSKNTLYLQMNSLRAEDTAVYYCAREYYYGMDVWGQGTTVTVSS
VL: not shown
notes: also called S-B8 dimer
B2: S-E6 (antibody, V domains shown)
VH: QVTLRESGPGLVKPSETLSLTCAVSGGSLSSVNYYWSWIRQHPGKGLEWIGYIYYSGSTNYNPSLKSRVTMSLDTSKNQFSLKLSSVTAADTAVYYCATPGAIMGALHIWGQGTLVTVSS
VL: QAVLTQPSSASSTPGQRVIISCSGSSSNIGSNTVSWYQQVPGAAPKLLIYFDYRRPSGVPDRFSGTRSGTSASLGISGLQSEDEADYYCAAWDDSLSAWVFGRGTKLTVLG
notes: also called S-E6 dimer; dimer S-E6
B3: S-D4 (antibody, V domains shown)
VH: QVQLQESGGGVVQPGRSLRLSCEVSGFTFSDYGMHWVRQAPGKGLEWVAVIWSEGSTEYYADSVKGRFTISRDNSKDTLYLQMNSLRAEDTAVYYCARPGYPTSTDRSPAAAGARQYYYYGMDVWGQGTTVTVSS
VL: NFMLTQPHSVSESPGKTVTISCTRSGGSGAANYVQWYQQRPGSSPTTLIYEDSRRPPGVPDRFSGSVDTSSNSASLTISGLQTEDEADYYCQSYDSSNHVVFGGGTKLTVLG
notes: also called S-D4 dimer; S-D4 IgG4

Assays:
HCoV-229E spike = molecular target: T1, HCoV-229E spike; experiment: FACS, transfected HEK293T cells, IgG4 antibody
HCoV-OC43 spike = molecular target: T2, HCoV-OC43 spike; experiment: FACS, transfected HEK293T cells, IgG4 antibody

| Binder | binding result (HCoV-229E spike) | binding result (HCoV-OC43 spike) |
| --- | --- | --- |
| B1 | no binding | no binding |
| B2 | no binding | no binding |
| B3 | no binding | no binding |
